# Key:
# c-Src SH2 = assay: SH2 binding enrichment of the phosphorylated peptide, bacterial display (enrichment ratio); higher = better substrate or ligand; peptides without Tyr show the background
# SHP2-C SH2 = assay: as above
# Grb2 SH2 = Grb2 SH2 (UniProt P62993); assay: as above
# EPHB2 = EPHB2 (UniProt P29323); assay: phosphorylation enrichment, bacterial display (enrichment ratio); higher = better substrate or ligand; peptides without Tyr show the background
# AncSZ = assay: as above
# EPHB1 = EPHB1 (UniProt P54762); assay: as above
# c-Abl (mouse) = assay: as above
# FGFR1 = FGFR1 (UniProt P11362); assay: as above
# MERTK = MERTK (UniProt Q12866); assay: as above
# Fer (mouse) = assay: as above
# Fyn = Fyn (UniProt P06241); assay: as above
# Jak2 = Jak2 (UniProt O60674); assay: as above
# c-Src = assay: as above
# Fes = Fes (UniProt P07332); assay: as above
# FGFR3 = FGFR3 (UniProt P22607); assay: as above
# Hck = Hck (UniProt P08631); assay: as above
# 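Throughout, for SH2 binding enrichment of the phosphorylated peptide, bacterial display: peptide library displayed on the E. coli surface as eCPX fusions, selected cells deep-sequenced, score is each peptide's frequency after selection divided by its frequency in the input.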
# 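Throughout, for phosphorylation enrichment, bacterial display: 11-residue human phosphosite peptides and single-mutation variants displayed on the E. coli surface, counted by deep sequencing, each peptide's frequency after selection divided by its frequency in the unselected input library; frequency after pTyr selection over input frequency; kinase dosed for 20-30% of maximal phosphorylation in three min.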
# Chain of FGFR1 (P11362 whole entry, looked up): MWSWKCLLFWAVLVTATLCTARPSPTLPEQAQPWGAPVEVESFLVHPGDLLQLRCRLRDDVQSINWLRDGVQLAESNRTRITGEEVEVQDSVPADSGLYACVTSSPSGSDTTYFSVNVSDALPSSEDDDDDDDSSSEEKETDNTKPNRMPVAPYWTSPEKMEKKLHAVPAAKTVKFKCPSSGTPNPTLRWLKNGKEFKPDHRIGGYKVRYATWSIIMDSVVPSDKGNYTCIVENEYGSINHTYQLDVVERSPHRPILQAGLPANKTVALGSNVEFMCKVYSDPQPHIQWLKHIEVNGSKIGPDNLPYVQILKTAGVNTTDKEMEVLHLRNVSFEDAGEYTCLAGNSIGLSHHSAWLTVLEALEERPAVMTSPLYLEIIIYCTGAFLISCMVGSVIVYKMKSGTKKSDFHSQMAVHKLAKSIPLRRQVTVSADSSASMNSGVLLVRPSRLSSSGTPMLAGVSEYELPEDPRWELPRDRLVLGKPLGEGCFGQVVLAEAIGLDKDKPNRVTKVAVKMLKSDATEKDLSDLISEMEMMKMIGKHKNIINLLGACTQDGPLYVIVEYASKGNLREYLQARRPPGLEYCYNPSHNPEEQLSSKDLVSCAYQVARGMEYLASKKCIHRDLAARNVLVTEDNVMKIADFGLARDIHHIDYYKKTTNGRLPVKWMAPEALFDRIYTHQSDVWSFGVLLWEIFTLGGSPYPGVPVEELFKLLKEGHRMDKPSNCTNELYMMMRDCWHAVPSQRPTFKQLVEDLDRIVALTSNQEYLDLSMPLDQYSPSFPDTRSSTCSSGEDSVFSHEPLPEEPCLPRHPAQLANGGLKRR
# Chain of FGFR3 (P22607 whole entry, looked up): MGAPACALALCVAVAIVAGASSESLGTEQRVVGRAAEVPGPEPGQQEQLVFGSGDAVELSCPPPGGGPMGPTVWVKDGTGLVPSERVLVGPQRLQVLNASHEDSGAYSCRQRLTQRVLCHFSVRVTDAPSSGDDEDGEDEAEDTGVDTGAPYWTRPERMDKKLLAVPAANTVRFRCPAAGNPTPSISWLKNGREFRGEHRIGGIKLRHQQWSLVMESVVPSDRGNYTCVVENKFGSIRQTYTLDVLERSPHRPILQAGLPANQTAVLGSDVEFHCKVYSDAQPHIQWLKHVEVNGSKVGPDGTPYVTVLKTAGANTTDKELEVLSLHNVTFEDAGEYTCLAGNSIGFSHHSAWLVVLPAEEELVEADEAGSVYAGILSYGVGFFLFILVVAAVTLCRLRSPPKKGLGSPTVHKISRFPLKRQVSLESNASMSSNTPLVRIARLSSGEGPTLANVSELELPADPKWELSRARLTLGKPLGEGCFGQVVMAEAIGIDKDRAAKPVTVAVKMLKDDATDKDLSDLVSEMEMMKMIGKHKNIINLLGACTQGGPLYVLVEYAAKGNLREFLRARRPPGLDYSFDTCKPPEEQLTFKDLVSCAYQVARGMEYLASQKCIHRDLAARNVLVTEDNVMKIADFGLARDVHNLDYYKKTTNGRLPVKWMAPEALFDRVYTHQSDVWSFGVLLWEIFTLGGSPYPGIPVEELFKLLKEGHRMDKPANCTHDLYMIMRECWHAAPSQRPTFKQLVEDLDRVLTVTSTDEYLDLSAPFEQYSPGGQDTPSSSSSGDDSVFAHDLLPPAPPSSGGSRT
# Chain of EPHB1 (P54762 whole entry, looked up): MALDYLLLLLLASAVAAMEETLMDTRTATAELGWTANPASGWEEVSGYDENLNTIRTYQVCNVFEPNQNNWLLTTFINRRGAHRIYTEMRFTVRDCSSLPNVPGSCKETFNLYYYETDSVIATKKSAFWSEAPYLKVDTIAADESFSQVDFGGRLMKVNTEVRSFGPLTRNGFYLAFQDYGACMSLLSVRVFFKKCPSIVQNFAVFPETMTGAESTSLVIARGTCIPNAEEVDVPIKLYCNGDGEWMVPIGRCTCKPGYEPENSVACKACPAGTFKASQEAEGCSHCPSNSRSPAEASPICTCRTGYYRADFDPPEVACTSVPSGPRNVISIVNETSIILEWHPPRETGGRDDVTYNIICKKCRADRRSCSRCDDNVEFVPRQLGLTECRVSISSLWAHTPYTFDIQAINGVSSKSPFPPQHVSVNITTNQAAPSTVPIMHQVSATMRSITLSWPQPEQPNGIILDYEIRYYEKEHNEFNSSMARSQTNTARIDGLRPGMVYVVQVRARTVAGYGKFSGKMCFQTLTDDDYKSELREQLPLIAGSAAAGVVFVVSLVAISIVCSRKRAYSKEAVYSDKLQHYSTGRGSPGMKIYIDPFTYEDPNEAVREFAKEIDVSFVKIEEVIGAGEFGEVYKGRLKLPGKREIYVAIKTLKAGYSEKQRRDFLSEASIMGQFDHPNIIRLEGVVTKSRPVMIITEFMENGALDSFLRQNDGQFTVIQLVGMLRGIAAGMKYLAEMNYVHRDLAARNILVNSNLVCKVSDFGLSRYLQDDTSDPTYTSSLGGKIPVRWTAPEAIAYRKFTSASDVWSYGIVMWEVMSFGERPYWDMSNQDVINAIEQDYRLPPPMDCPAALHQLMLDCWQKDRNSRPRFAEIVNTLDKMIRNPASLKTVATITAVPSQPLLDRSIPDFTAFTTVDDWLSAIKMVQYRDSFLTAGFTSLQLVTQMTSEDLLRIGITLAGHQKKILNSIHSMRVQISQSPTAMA
# Chain of EPHB2 (P29323 whole entry, looked up): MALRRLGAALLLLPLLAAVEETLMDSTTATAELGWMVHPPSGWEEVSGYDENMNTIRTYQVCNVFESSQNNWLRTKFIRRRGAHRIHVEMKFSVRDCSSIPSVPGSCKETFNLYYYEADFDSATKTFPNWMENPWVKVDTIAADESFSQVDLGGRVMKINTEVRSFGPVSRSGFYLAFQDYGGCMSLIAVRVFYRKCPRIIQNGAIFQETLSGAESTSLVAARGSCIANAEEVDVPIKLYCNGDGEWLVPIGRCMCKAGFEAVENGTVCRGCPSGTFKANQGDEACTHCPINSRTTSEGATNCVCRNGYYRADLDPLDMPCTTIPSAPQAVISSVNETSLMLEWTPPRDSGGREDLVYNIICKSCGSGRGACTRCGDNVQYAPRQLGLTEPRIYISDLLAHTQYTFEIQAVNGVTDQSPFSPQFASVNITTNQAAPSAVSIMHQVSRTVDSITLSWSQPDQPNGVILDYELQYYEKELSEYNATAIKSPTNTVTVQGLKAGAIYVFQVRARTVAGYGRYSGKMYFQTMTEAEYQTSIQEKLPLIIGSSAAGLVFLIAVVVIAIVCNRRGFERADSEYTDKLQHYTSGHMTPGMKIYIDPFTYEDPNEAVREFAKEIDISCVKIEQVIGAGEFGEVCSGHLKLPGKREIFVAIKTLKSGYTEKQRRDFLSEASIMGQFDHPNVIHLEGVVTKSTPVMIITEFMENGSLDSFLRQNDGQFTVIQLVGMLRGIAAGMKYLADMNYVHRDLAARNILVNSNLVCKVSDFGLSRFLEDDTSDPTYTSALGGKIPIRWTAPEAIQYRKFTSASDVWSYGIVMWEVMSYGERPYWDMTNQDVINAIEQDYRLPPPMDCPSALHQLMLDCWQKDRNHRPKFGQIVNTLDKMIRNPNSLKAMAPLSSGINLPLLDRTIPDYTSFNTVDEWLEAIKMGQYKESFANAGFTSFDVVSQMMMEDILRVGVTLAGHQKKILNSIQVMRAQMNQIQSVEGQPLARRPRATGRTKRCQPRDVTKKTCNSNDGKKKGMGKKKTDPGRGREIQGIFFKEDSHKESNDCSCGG
# Chain of Fes (P07332 whole entry, looked up): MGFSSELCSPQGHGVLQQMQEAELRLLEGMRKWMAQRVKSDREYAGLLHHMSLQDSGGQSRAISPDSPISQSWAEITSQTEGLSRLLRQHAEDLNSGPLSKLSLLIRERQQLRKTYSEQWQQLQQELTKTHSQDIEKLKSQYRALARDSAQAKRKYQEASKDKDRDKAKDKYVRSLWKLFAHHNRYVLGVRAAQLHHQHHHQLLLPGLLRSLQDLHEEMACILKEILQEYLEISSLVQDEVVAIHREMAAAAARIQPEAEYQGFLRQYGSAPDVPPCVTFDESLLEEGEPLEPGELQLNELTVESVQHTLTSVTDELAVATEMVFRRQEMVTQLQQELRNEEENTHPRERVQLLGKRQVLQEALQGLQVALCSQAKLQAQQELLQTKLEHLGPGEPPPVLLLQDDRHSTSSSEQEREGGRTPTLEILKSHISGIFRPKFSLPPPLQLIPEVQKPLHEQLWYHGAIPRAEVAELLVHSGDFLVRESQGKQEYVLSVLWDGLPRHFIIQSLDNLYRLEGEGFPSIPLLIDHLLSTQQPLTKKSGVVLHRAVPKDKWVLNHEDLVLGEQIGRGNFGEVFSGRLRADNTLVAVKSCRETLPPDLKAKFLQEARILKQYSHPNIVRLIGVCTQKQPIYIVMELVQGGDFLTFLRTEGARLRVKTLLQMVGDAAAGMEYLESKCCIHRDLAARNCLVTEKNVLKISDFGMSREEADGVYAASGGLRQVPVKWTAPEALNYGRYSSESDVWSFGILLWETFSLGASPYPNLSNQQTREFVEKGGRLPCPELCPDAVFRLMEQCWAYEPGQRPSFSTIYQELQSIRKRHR
# Chain of Fyn (P06241 whole entry, looked up): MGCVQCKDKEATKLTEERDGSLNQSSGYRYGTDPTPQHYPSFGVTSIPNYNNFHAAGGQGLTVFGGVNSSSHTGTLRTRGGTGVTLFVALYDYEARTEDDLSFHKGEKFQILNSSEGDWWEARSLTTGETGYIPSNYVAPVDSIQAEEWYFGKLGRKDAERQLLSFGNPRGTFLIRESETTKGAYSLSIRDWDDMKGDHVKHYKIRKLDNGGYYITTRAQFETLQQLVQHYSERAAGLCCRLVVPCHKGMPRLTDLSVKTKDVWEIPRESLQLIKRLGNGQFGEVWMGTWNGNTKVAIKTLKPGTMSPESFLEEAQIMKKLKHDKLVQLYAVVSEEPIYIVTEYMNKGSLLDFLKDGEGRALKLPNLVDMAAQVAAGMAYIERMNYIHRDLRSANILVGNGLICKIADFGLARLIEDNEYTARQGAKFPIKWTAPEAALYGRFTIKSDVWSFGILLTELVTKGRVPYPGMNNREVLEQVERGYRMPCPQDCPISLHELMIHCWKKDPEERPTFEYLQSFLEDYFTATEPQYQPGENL
Sequence,SH2 binding enrichment (c-Src SH2),SH2 binding enrichment (SHP2-C SH2),SH2 binding enrichment (Grb2 SH2),phosphorylation enrichment (EPHB2),phosphorylation enrichment (AncSZ),phosphorylation enrichment (EPHB1),phosphorylation enrichment (c-Abl (mouse)),phosphorylation enrichment (FGFR1),phosphorylation enrichment (MERTK),phosphorylation enrichment (Fer (mouse)),phosphorylation enrichment (Fyn),phosphorylation enrichment (Jak2),phosphorylation enrichment (c-Src),phosphorylation enrichment (Fes),phosphorylation enrichment (FGFR3),phosphorylation enrichment (Hck)
LSIQCYLRASD [HMGCS2_Y262_L266S],0.443,0.795,0.732,3.31,3.81,3.37,1.87,1.99,1.2,2.44,2.73,2.95,0.998,4.92,5.23,2.46
LSRDVYEEDSF [RET_Y900_YF],0.769,0.805,0.778,0.908,1.77,1.07,1.57,0.813,0.819,0.946,0.573,1.7,0.828,2.02,0.89,0.875
LSTPEYGPKLK [TBC1D14_Y46_A43T],0.445,0.733,0.796,0.496,0.673,0.47,0.57,0.465,0.532,0.461,0.527,0.569,0.494,0.574,0.506,0.417
LTAEVYFPSIK [C5orf64_Y60],0.453,0.708,0.763,0.906,1.78,0.966,1.64,0.866,0.648,0.963,1.02,0.996,0.75,2.04,1.88,1.06
LTERDYSFVTT [ACTG2_Y199_G198D],0.678,1.37,0.792,3.51,2.56,2.38,0.888,7.67,1.26,2.82,1.93,1.27,0.977,1.6,4.74,1.62
LTRDIYKNDYY [ROS1_Y2110_A2106T],1.53,0.906,1.35,2.79,2.28,2.15,1.21,5.83,0.839,1,1.82,2.28,2.86,1.88,3.61,1.48
LVQAEYWHDPI [PPT1_Y185],1.11,0.638,0.824,0.487,1.48,0.677,1.36,3.89,0.591,0.644,0.58,1.18,0.61,1.48,2.98,0.593
LVRPPYSFSAL [FOXI1_Y126_YF],0.478,0.562,0.809,0.46,0.602,0.385,0.465,0.395,0.363,0.479,0.419,0.553,0.409,0.618,0.434,0.423
LVRPPYSYSAL [FOXI1_Y126],1.8,1.72,0.885,0.568,0.952,1.07,0.641,0.572,2.06,0.619,0.722,1.03,0.704,0.862,0.713,0.528
LWQTIYNLEAE [TNNT2_Y251_S249T],0.823,0.773,1.03,0.894,1.56,1.3,1.21,1.15,0.735,0.855,10.9,1.73,8.82,2.22,1.13,5.88
MCTVDYLLRLQ [RYR1_Y3921_I3916M],0.523,0.765,0.84,0.62,1.07,0.597,0.866,0.526,0.516,0.504,0.546,1.19,0.487,1.35,0.684,0.529
MDDDQYALLTA [EFCAB6_Y675_T680A],0.689,0.702,0.761,0.722,1.35,0.547,0.871,1.21,0.592,0.665,0.647,1.15,0.608,1.35,1.2,0.77
MENFIYESMQF [CYP19A1_Y361_R365Q_YF],0.448,0.691,0.679,5.77,1.81,8.07,4.06,0.888,6.46,16.1,9.33,1.04,7.14,6.34,0.759,7.84
MENFIYESMQY [CYP19A1_Y361_R365Q],0.786,0.954,0.914,5.02,1.37,7.15,1.24,0.652,3.64,13.3,9.05,0.894,6.84,3.36,0.724,7.07
MEVEQYIFVKC [CYBB_Y324_G322E],0.513,0.599,0.725,0.868,1.74,1.03,1.04,1.98,0.509,0.679,0.575,1.53,0.594,1.64,1.99,0.71
